Source: PMC12233092, “NSUN2-mediated HCV RNA m5C Methylation Facilitates Viral RNA Stability and Replication”

Columns and labels:
Details in all cases: protein: recombinant; tags: 6xHis; blunt
E2F1 [1] = target: T1, E2F1 (Homo sapiens? (cDNA amplified, Huh7.5.1 …, UniProt Q01094 1-437)); assay: EMSA; E2F1 50-400 nM, probe 10 nM; EMSA binding buffer (Beyotime GS005; composition and pH not given), room temperature, 30 min; 8% TBE agarose gel as stated, on ice, 80 V 1.5 h
E2F1 [2] = target: T1, E2F1; assay: competition; 10 uM unlabeled competitor vs 10 nM FAM-labeled N1; interaction abrogated; EMSA binding buffer (Beyotime GS005; composition and pH not given), room temperature, 30 min; 8% TBE agarose gel as stated, on ice, 80 V 1.5 h
E2F1 [3] = target: T1, E2F1; assay: EMSA; probe 10 nM; EMSA binding buffer (Beyotime GS005; composition and pH not given), room temperature, 30 min; 8% TBE agarose gel as stated, on ice, 80 V 1.5 h

T1 sequence (Q01094 whole entry): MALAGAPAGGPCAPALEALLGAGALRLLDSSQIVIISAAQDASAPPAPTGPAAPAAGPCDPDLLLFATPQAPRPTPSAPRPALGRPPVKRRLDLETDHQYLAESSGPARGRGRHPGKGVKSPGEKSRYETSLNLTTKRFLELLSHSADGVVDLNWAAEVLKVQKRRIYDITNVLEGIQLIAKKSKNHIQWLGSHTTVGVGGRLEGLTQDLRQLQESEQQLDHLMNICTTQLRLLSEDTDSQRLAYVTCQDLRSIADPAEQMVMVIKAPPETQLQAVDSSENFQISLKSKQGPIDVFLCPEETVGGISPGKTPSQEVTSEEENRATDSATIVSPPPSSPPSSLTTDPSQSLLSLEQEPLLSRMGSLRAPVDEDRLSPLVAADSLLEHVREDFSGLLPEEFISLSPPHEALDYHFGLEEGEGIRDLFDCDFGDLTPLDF

B1: NSUN2-Promoter-probe (dsDNA)
DNA 1: CTGACGATTGCGCGCGAAGACCGCGCAGCCCA
DNA 2: TGGGCTGCGCGGTCTTCGCGCGCAATCGTCAG
B1: binds (E2F1 [1]).

B2: NSUN2-Promoter-probe, unlabeled competitor (dsDNA)
DNA 1: CTGACGATTGCGCGCGAAGACCGCGCAGCCCA
DNA 2: TGGGCTGCGCGGTCTTCGCGCGCAATCGTCAG
B2: binds (E2F1 [2]).

B3: NSUN2-Promoter-Mut-probe (dsDNA)
DNA 1: CTGACGATGGGATTCTTTGACCGCGCAGCCCA
DNA 2: TGGGCTGCGCGGTCAAAGAATCCCATCGTCAG
B3: no binding (E2F1 [3]).
